For 6 molecules, response results are on record in paper PMC8215223.

The target of this assay is T1, tubulin (endogenous), P07437.
T1 chain: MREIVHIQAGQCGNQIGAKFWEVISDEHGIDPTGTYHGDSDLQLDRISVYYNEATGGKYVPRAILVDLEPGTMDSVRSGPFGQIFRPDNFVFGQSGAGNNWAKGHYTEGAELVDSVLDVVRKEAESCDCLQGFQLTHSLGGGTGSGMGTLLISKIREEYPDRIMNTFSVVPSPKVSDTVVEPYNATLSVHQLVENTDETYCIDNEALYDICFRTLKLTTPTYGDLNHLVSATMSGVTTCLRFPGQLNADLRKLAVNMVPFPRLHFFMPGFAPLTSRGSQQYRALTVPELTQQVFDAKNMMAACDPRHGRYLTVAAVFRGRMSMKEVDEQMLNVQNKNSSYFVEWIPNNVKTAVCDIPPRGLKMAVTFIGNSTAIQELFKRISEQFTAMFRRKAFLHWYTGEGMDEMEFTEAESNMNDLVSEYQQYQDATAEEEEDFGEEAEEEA
In words: coIP (co-immunoprecipitation, blot band intensity quantified). Particulars: chain shown with the change; HeLa cells, 100 ng/mL nocodazole for 16 hr (+); parent: est. 7.8; read off a plot.

B1: GFP-WT-HOOK3, Q86VS8 S238A (protein)
chain: MFSVESLERAELCESLLTWIQTFNVDAPCQTVEDLTNGVVMAQVLQKIDPAYFDENWLNRIKTEVGDNWRLKISNLKKILKGILDYNHEILGQQINDFTLPDVNLIGEHSDAAELGRMLQLILGCAVNCEQKQEYIQAIMMMEESVQHVVMTAIQELMSKESPVSAGNDAYVDLDRQLKKTTEELNEALSAKEEIAQRCHELDMQVAALQEEKSSLLAENQVLMERLNQSDSIEDPNAPAGRRHLQLQTQLEQLQEETFRLEAAKDDYRIRCEELEKEISELRQQNDELTTLADEAQSLKDEIDVLRHSSDKVSKLEGQVESYKKKLEDLGDLRRQVKLLEEKNTMYMQNTVSLEEELRKANAARSQLETYKRQVVELQNRLSEESKKADKLDFEYKRLKEKVDSLQKEKDRLRTERDSLKETIEELRCVQAQEGQLTTQGLMPLGSQESSDSLAAEIVTPEIREKLIRLQHENKMLKLNQEGSDNEKIALLQSLLDDANLRKNELETENRLVNQRLLEVQSQVEELQKSLQDQGSKAEDSVLLKKKLEEHLEKLHEANNELQKKRAIIEDLEPRFNNSSLKIEELQEALRKKEEEMKQMEERYKKYLEKAKSVIRTLDPKQNQGAAPEIQALKNQLQERDRLFHSLEKEYEKTKSQREMEEKYIVSAWYNMGMTLHKKAAEDRLASTGSGQSFLARQRQATSSRRSYPGHVQPATAR
Turning to B1, the response was determined as 8.8 A.U.

B2: GFP-WT-HOOK3, Q86VS8 S707E (protein)
chain: MFSVESLERAELCESLLTWIQTFNVDAPCQTVEDLTNGVVMAQVLQKIDPAYFDENWLNRIKTEVGDNWRLKISNLKKILKGILDYNHEILGQQINDFTLPDVNLIGEHSDAAELGRMLQLILGCAVNCEQKQEYIQAIMMMEESVQHVVMTAIQELMSKESPVSAGNDAYVDLDRQLKKTTEELNEALSAKEEIAQRCHELDMQVAALQEEKSSLLAENQVLMERLNQSDSIEDPNSPAGRRHLQLQTQLEQLQEETFRLEAAKDDYRIRCEELEKEISELRQQNDELTTLADEAQSLKDEIDVLRHSSDKVSKLEGQVESYKKKLEDLGDLRRQVKLLEEKNTMYMQNTVSLEEELRKANAARSQLETYKRQVVELQNRLSEESKKADKLDFEYKRLKEKVDSLQKEKDRLRTERDSLKETIEELRCVQAQEGQLTTQGLMPLGSQESSDSLAAEIVTPEIREKLIRLQHENKMLKLNQEGSDNEKIALLQSLLDDANLRKNELETENRLVNQRLLEVQSQVEELQKSLQDQGSKAEDSVLLKKKLEEHLEKLHEANNELQKKRAIIEDLEPRFNNSSLKIEELQEALRKKEEEMKQMEERYKKYLEKAKSVIRTLDPKQNQGAAPEIQALKNQLQERDRLFHSLEKEYEKTKSQREMEEKYIVSAWYNMGMTLHKKAAEDRLASTGSGQSFLARQRQATSSRREYPGHVQPATAR
For B2, the response came to 12 A.U.

B3: GFP-WT-HOOK3, Q86VS8 S238A; S707A (protein)
chain: MFSVESLERAELCESLLTWIQTFNVDAPCQTVEDLTNGVVMAQVLQKIDPAYFDENWLNRIKTEVGDNWRLKISNLKKILKGILDYNHEILGQQINDFTLPDVNLIGEHSDAAELGRMLQLILGCAVNCEQKQEYIQAIMMMEESVQHVVMTAIQELMSKESPVSAGNDAYVDLDRQLKKTTEELNEALSAKEEIAQRCHELDMQVAALQEEKSSLLAENQVLMERLNQSDSIEDPNAPAGRRHLQLQTQLEQLQEETFRLEAAKDDYRIRCEELEKEISELRQQNDELTTLADEAQSLKDEIDVLRHSSDKVSKLEGQVESYKKKLEDLGDLRRQVKLLEEKNTMYMQNTVSLEEELRKANAARSQLETYKRQVVELQNRLSEESKKADKLDFEYKRLKEKVDSLQKEKDRLRTERDSLKETIEELRCVQAQEGQLTTQGLMPLGSQESSDSLAAEIVTPEIREKLIRLQHENKMLKLNQEGSDNEKIALLQSLLDDANLRKNELETENRLVNQRLLEVQSQVEELQKSLQDQGSKAEDSVLLKKKLEEHLEKLHEANNELQKKRAIIEDLEPRFNNSSLKIEELQEALRKKEEEMKQMEERYKKYLEKAKSVIRTLDPKQNQGAAPEIQALKNQLQERDRLFHSLEKEYEKTKSQREMEEKYIVSAWYNMGMTLHKKAAEDRLASTGSGQSFLARQRQATSSRRAYPGHVQPATAR
On to B3, for which the response is 19 A.U.

B4: GFP-WT-HOOK3, Q86VS8 S707A (protein)
chain: MFSVESLERAELCESLLTWIQTFNVDAPCQTVEDLTNGVVMAQVLQKIDPAYFDENWLNRIKTEVGDNWRLKISNLKKILKGILDYNHEILGQQINDFTLPDVNLIGEHSDAAELGRMLQLILGCAVNCEQKQEYIQAIMMMEESVQHVVMTAIQELMSKESPVSAGNDAYVDLDRQLKKTTEELNEALSAKEEIAQRCHELDMQVAALQEEKSSLLAENQVLMERLNQSDSIEDPNSPAGRRHLQLQTQLEQLQEETFRLEAAKDDYRIRCEELEKEISELRQQNDELTTLADEAQSLKDEIDVLRHSSDKVSKLEGQVESYKKKLEDLGDLRRQVKLLEEKNTMYMQNTVSLEEELRKANAARSQLETYKRQVVELQNRLSEESKKADKLDFEYKRLKEKVDSLQKEKDRLRTERDSLKETIEELRCVQAQEGQLTTQGLMPLGSQESSDSLAAEIVTPEIREKLIRLQHENKMLKLNQEGSDNEKIALLQSLLDDANLRKNELETENRLVNQRLLEVQSQVEELQKSLQDQGSKAEDSVLLKKKLEEHLEKLHEANNELQKKRAIIEDLEPRFNNSSLKIEELQEALRKKEEEMKQMEERYKKYLEKAKSVIRTLDPKQNQGAAPEIQALKNQLQERDRLFHSLEKEYEKTKSQREMEEKYIVSAWYNMGMTLHKKAAEDRLASTGSGQSFLARQRQATSSRRAYPGHVQPATAR
For the molecule B4, the response came to 8.5 A.U.

B5: GFP-WT-HOOK3, Q86VS8 S238E (protein)
chain: MFSVESLERAELCESLLTWIQTFNVDAPCQTVEDLTNGVVMAQVLQKIDPAYFDENWLNRIKTEVGDNWRLKISNLKKILKGILDYNHEILGQQINDFTLPDVNLIGEHSDAAELGRMLQLILGCAVNCEQKQEYIQAIMMMEESVQHVVMTAIQELMSKESPVSAGNDAYVDLDRQLKKTTEELNEALSAKEEIAQRCHELDMQVAALQEEKSSLLAENQVLMERLNQSDSIEDPNEPAGRRHLQLQTQLEQLQEETFRLEAAKDDYRIRCEELEKEISELRQQNDELTTLADEAQSLKDEIDVLRHSSDKVSKLEGQVESYKKKLEDLGDLRRQVKLLEEKNTMYMQNTVSLEEELRKANAARSQLETYKRQVVELQNRLSEESKKADKLDFEYKRLKEKVDSLQKEKDRLRTERDSLKETIEELRCVQAQEGQLTTQGLMPLGSQESSDSLAAEIVTPEIREKLIRLQHENKMLKLNQEGSDNEKIALLQSLLDDANLRKNELETENRLVNQRLLEVQSQVEELQKSLQDQGSKAEDSVLLKKKLEEHLEKLHEANNELQKKRAIIEDLEPRFNNSSLKIEELQEALRKKEEEMKQMEERYKKYLEKAKSVIRTLDPKQNQGAAPEIQALKNQLQERDRLFHSLEKEYEKTKSQREMEEKYIVSAWYNMGMTLHKKAAEDRLASTGSGQSFLARQRQATSSRRSYPGHVQPATAR
For B5, the response worked out at 20 A.U.

B6: GFP-WT-HOOK3, Q86VS8 S238E; S707E (protein)
chain: MFSVESLERAELCESLLTWIQTFNVDAPCQTVEDLTNGVVMAQVLQKIDPAYFDENWLNRIKTEVGDNWRLKISNLKKILKGILDYNHEILGQQINDFTLPDVNLIGEHSDAAELGRMLQLILGCAVNCEQKQEYIQAIMMMEESVQHVVMTAIQELMSKESPVSAGNDAYVDLDRQLKKTTEELNEALSAKEEIAQRCHELDMQVAALQEEKSSLLAENQVLMERLNQSDSIEDPNEPAGRRHLQLQTQLEQLQEETFRLEAAKDDYRIRCEELEKEISELRQQNDELTTLADEAQSLKDEIDVLRHSSDKVSKLEGQVESYKKKLEDLGDLRRQVKLLEEKNTMYMQNTVSLEEELRKANAARSQLETYKRQVVELQNRLSEESKKADKLDFEYKRLKEKVDSLQKEKDRLRTERDSLKETIEELRCVQAQEGQLTTQGLMPLGSQESSDSLAAEIVTPEIREKLIRLQHENKMLKLNQEGSDNEKIALLQSLLDDANLRKNELETENRLVNQRLLEVQSQVEELQKSLQDQGSKAEDSVLLKKKLEEHLEKLHEANNELQKKRAIIEDLEPRFNNSSLKIEELQEALRKKEEEMKQMEERYKKYLEKAKSVIRTLDPKQNQGAAPEIQALKNQLQERDRLFHSLEKEYEKTKSQREMEEKYIVSAWYNMGMTLHKKAAEDRLASTGSGQSFLARQRQATSSRREYPGHVQPATAR
As for B6, the response was determined as 9 A.U.
